doi:10.1101/2020.02.21.959445

T1: MEF/LA (designed (human Max/human E47/FosW), four FosW heptad Leu to Ala (see sequence))
T1 chain: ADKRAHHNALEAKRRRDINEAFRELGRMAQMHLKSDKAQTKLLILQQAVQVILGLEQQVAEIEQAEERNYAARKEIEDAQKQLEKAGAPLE

T2: MEF+1 (designed (human Max/human E47/FosW))
T2 chain: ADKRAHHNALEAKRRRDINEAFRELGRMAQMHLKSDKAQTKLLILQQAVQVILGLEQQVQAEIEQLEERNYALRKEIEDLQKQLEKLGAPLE

T3: ME47/AA (designed (human Max/human E47), R12A;C29A)
T3 chain: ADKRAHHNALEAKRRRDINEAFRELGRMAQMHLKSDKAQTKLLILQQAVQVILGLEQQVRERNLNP

T4: MEF (designed (human Max/human E47/FosW))
T4 chain: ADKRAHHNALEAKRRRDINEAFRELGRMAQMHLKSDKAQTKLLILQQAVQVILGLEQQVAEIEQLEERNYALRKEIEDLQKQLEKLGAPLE

T5: MEF-1 (designed (human Max/human E47/FosW))
T5 chain: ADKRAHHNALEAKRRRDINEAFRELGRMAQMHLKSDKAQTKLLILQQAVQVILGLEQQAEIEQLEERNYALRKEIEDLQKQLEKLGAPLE

B1: NS DNA (nonspecific; TCCAAG in place of CACGTG) (dsDNA)
DNA 1: TGCAGGAGTTCCAAGGCGAAGGTT
DNA 2: AACCTTCGCCTTGGAACTCCTGCA
B2: AT E-box (-7 AT E-box) (dsDNA)
DNA 1: GCGGCCGCTGCAGGAACCACGTGGTGGAATTCTTTACA
DNA 2: TGTAAAGAATTCCACCACGTGGTTCCTGCAGCGGCCGC
B3: E-box (-7 GC E-box) (dsDNA)
DNA 1: GCGGCCGCTGCAGGAGCCACGTGCGGGAATTCTTTACA
DNA 2: TGTAAAGAATTCCCGCACGTGGCTCCTGCAGCGGCCGC

Columns and labels:
Assay in all cases: EMSA
[1] = target: T1, MEF/LA
[2] = target: T2, MEF+1
[3] = target: T3, ME47/AA
[4] = target: T4, MEF
[5] = target: T5, MEF-1

Binder | Kd [1] [nM] | Kd [2] [nM] | Kd [3] [nM] | Kd [4] [nM] | Kd [5] [nM]
B1 | 44.5 ± 6 | 65 ± 7 | 87.5 ± 5.1 | 96 ± 22 | 111 ± 18
B2 |  |  | 28.5 ± 2.3 |  | 
B3 | 10.7 ± 1.5 | 30 ± 4 | 27.7 ± 1.7 | 7.8 ± 0.6 | 59 ± 5
